Measurements: US20260274985A1 (MYTHIC THERAPEUTICS, published 2026)
Substitutions are numbered along the chain they refer to.

T1: TROP2 on TROP2-positive NCI-H1975 cells (human, UniProt P09758 27-323)
T1 sequence: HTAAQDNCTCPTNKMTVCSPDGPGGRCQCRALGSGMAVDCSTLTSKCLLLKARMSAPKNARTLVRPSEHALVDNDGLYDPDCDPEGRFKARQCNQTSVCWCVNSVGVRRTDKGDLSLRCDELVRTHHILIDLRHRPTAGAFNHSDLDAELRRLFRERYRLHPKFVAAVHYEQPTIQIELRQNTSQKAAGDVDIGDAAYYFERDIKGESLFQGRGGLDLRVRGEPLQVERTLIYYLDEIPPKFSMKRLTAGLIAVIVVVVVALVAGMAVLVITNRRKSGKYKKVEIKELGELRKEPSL

T2: Human TROP2 Protein, His Tag (human, UniProt P09758 27-274)
T2 construct: Bought protein; also called TACSTD2; not shown: His tag
T2 sequence (looked up): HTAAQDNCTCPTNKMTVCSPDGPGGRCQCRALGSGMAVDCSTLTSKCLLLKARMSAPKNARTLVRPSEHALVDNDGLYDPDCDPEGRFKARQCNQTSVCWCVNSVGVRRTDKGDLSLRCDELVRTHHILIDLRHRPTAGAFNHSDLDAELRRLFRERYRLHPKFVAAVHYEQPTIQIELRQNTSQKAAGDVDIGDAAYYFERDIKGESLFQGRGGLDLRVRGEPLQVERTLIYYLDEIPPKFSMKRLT

T3: Human TROP2 Protein, His Tag (Acro Biosystems) (human, UniProt P09758 27-274)
T3 construct: not shown: His tag
T3 sequence (looked up): T2 sequence (looked up)

B1: MYT12375 (antibody, human IgG1, V domains shown)
VH: QVQLQQSGSELKKPGASVKVSCKASGYTFTNYGMNWVKQAPGQGLKWMGWINTYTGEPTYTDDFKGRFAFSLDTSVSTAYLQISSLKADDTAVYFCARGGFGSSYWYFDVWGQGSLVTVSS
VL: DIQLTQSPSSLSASVGDRVSITCKASQDVSIAVAWYQQKPGKAPKLLIYSHSHRYTGVPDRFSGSGSGTDFTLTISSLQPEDFAVYYCQQHYHTPLTFGAGTKVEIK
B2: MYT11682 (antibody, human IgG1, V domains shown)
VH: QVQLVQSGAEVKKPGASVKVSCKASGYTFTTAGMQWVRQAPGQGLEWMGWINTHSGVPKYAEDFKGRVTISADTSTSTAYLQLSSLKSEDTAVYYCARSGFGSSYWYFDVWGQGTLVTVSS
VL: B1 VL with L4M, S20T, V29H, I31T, H51A, H53Y, D60S, H93I, A100Q, V104L
B3: MYT11766 (antibody, human IgG1, V domains shown)
VH: QVQLQESGPGLVKPSETLSLTCTVSGGSISSYGVHWIRQPPGKGLEWIGVIWTSGVTDYNSALMGRVTISVDTSKNQFSLKLSSVTAADTAVYYCARDGDYDRYTMDYWGQGTLVTVSS
VL: DIVMTQSPDSLAVSLGERATINCRASKSVSTSGYSYMHWYQQKPGQPPKLLIYLASNLESGVPDRFSGSGSGTDFTLTISSLQAEDVAVYYCHHSRELPYTFGQGTKLEIK
B4: MYT11770 (antibody, human IgG1, V domains shown)
VH: B3 VH
VL: B3 VL with H93Q, E97H
B5: MYT12440 (antibody, human IgG1, V domains shown)
VH: B3 VH
VL: B3 VL with E59H
B6: MYT11665 (antibody, V domains shown)
VH: B2 VH with S99H
VL: B1 VL with L4M, S20T, I31T, H51A, H53Y, D60S, H93I, A100Q, V104L
notes: IgG from supernatant; His at HCV position 99; also called datopotamab variant H3 03
B7: MYT11666 (antibody, V domains shown)
VH: B2 VH with G100H
VL: B1 VL with L4M, S20T, I31T, H51A, H53Y, D60S, H93I, A100Q, V104L
notes: IgG from supernatant; His at HCV position 100; also called datopotamab variant H3 04
B8: MYT11668 (antibody, V domains shown)
VH: B2 VH with G102H
VL: B1 VL with L4M, S20T, I31T, H51A, H53Y, D60S, H93I, A100Q, V104L
notes: IgG from supernatant; also called datopotamab variant H3 06
B9: MYT11669 (antibody, V domains shown)
VH: B2 VH with S103H
VL: B1 VL with L4M, S20T, I31T, H51A, H53Y, D60S, H93I, A100Q, V104L
notes: IgG from supernatant; also called datopotamab variant H3 07
B10: MYT11672 (antibody, V domains shown)
VH: B2 VH with W106H
VL: B1 VL with L4M, S20T, I31T, H51A, H53Y, D60S, H93I, A100Q, V104L
notes: IgG from supernatant; also called datopotamab variant H3 10
B11: MYT13438 (antibody, V domains shown)
VH: B3 VH with I51H
VL: B3 VL with E59H, H93Q, H94A
notes: Full-length IgG from Expi293 supernatant; also called hu7E6SVG heavy chain and light chain pairing variant
B12: MYT13439 (antibody, V domains shown)
VH: B3 VH with V56H
VL: B3 VL with E59H, H93Q, H94A
notes: as for B11
B13: MYT13442 (antibody, V domains shown)
VH: B3 VH with M106H
VL: B3 VL with E59H, H93Q, H94A
notes: as for B11
B14: MYT13444 (antibody, V domains shown)
VH: B3 VH with V56H
VL: B3 VL with E59H, H93Q, T101H
notes: as for B11

The binders below were run against T1, TROP2 on TROP2-positive NCI-H1975 cells (assay: cell-based or functional assay).
B1 was tested, and the “cytotoxicity on TROP2-positive NCI-H1975 cells (antibody complexed to secondary antibody-MMAF, cell titer glow assay)” value (“cytotoxicity” for short) was ~27 % greater cytotoxicity compared to WT datopotamab.
In the case of B2, the “cytotoxicity” value is reported as ~20 % greater cytotoxicity compared to WT datopotamab.
In the case of B3, the “cytotoxicity” value is reported as ~30 % greater cytotoxicity compared to WT datopotamab.
B4 was tested, and the “cytotoxicity” value was ~30 % greater cytotoxicity compared to WT datopotamab.
In the case of B5, the “cytotoxicity” value is reported as ~30 % greater cytotoxicity compared to WT datopotamab.

The binders below were run against T2, Human TROP2 Protein, His Tag (assay: BLI (Octet)).
B6: no binding (tested: 50 nM).
B7: no binding (tested: 50 nM).
B8: no binding (tested: 50 nM).
B9: no binding (tested: 50 nM).
B10: no binding (tested: 50 nM).

What follows are binders tested against T3, Human TROP2 Protein, His Tag (Acro …) (assay: BLI (Octet) [2/2]).
B11: no binding (tested: 50 nM).
B12: no binding (tested: 50 nM).
B13: no binding (tested: 50 nM).
B14: no binding (tested: 50 nM).
